From the supplement of paper PMC12042874
± gives the uncertainty stated by the source.

Assay: amyloid nucleation score (Sup35N fusion, yeast selection) (log enrichment); library NNK3; higher = more nucleation; inactive = no reads after selection
How it was run: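 Sup35N fusions to peptides of 20 random codons were expressed in psi-negative yeast, induced 24 hours with 100 μM copper sulfate, and grown 7 days at 30°C on medium lacking adenine and uracil. Input and output plasmid inserts were sequenced by Illumina. The nucleation score is the DiMSum log enrichment of output over input reads, centred on the mode score of non-aggregating sequences. Sequences with under 100 input reads were excluded.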

Row | Substance | amyloid nucleation score
1 | PLVYLGSLSGDQHWLYFSKE | inactive
2 | CSKNRQSELRALGSYI | inactive
3 | IAQILDVQFSVHAIGVSRDM | inactive
4 | VFLHVWCGRVGKL | -0.089 ± 0.98
5 | PGCAAWRRSYVS | inactive
6 | TCVIKGGCCGLN | -0.955 ± 2.5
7 | ARLAFGIGE | inactive
8 | YCYAMS | inactive
9 | HAFEYVFISVTYQFNVKVIV | inactive
10 | MTLRRKLSMTAV | inactive
11 | DERKNSIDSR | inactive
12 | VFAAKGPTMYRSARVS | inactive
13 | VCLFHDSLRDNYRT | inactive
14 | LKAKCVIMSLPLDMGYHGKR | inactive
15 | FMYVRCQIVADTCFGIASWG | -0.032 ± 0.82
16 | CHEKANQELRHPYGCECVFV | inactive
17 | DLSMGNCEVVGLESSTTICK | inactive
18 | PRCDYYQ | inactive
19 | INWTRLRSRSEVWDTGRVWT | inactive
20 | IYCWCSVIDTGRAARLRVIK | inactive
21 | YNRMHMDCTKRIE | inactive
22 | IHDDSKNGK | 0.57 ± 0.16
23 | EDCRSR | inactive
24 | FLCLSKGTGVAISKMSQN | inactive

Row | Substance | amyloid nucleation score
25 | PNWNYSSLGQTSGQSSRHTS | inactive
26 | DTRGTARKPKSLSTRLEIRV | inactive
27 | FRFSMSL | inactive
28 | YDSRFTKLTCQSPINWHKEV | inactive
29 | TGGWTNNEQHFENSGMEVGT | inactive
30 | TFKMQWECVIA | 0.657 ± 0.16
31 | RTTKSNYTVLLDQNIPLSPT | inactive
32 | FVVKYNWRYDLLIPYQMDLI | inactive
33 | NRFVIIFSCLCFCPQSDMEL | 2.37 ± 0.083
34 | VCVLMIFNIVRRGMYSSARV | inactive
35 | MYETVR | inactive
36 | ISIPLLIMLPELGTASMVNG | inactive
37 | YGVWCSYKFVYSCDPYDSAG | 0.557 ± 0.15
38 | RWDNMFLSWRYCWVYAVSFS | inactive
39 | HWCYRSFMTPAPPNLLPQPQ | inactive
40 | WSAECLFLVWRIHSML | inactive
41 | EFATLAEPDVIYYFLVFYCS | inactive
42 | NVLVN | inactive
43 | IGRTLSHSATRLVCTDPFRR | inactive
44 | IWETVRIFCFINHAINCGVP | 2.35 ± 0.079
45 | FVGHDTELNPHGRYGCLD | inactive
46 | YNLSRHQRTSTSLRCKGQSF | 0.241 ± 0.44
47 | WYHVSHVYYGVGIGLRD | inactive
48 | KWVCYHSWDYTCYHGEWYPS | inactive

Row | Substance | amyloid nucleation score
49 | RARMV | inactive
50 | IGNLLLGCRPSQNSLRAHTS | inactive
51 | SNSRVGIFWDRLVFRYCRGM | -0.5 ± 1
52 | WKFSISWVYTKME | -0.423 ± 0.75
53 | AQPVNMDKSWG | inactive
54 | FMGSGQVVNTRASGIMGLFF | inactive
55 | GLIDLRVCEGRQFARTGSEM | 0.132 ± 0.36
56 | DYTMVKLLIGLSGIRTPVVR | inactive
57 | KYNFNYPEITLAPTYYMSIT | inactive
58 | SALLNRLSVSLYWMYGMSFM | inactive
59 | ANTGFLLSWNGFLLMCLELD | inactive
60 | AYNGK | inactive
61 | EMLKVLVHS | inactive
62 | GERWVQKIQ | inactive
63 | LAYWPSNGCVP | inactive
64 | YLLVHLAKCIFNWHLSSIEM | -0.109 ± 0.78
65 | RVGCVQYQFRRCRGWKSNKA | inactive
66 | LAIILLFAVRLCRDANGDAM | inactive
67 | VTIITMEIWL | 1.64 ± 0.06
68 | NAVRLVGSPAVVVSTMGHN | inactive
69 | ANDGAHFFIIQLECHAEEVR | -0.303 ± 0.39
70 | NYGGFKDFG | 1.51 ± 0.088
71 | LRNQITQIDDT | inactive
72 | SKAYKAYNVLRLISI | inactive

Row | Substance | amyloid nucleation score
73 | WGLGETCLKLSWPCRN | inactive
74 | IQQGKVYKGTLLLTAYMTSE | 1.11 ± 0.096
75 | LGRANIHATIACM | inactive
76 | PLFWNGSC | inactive
77 | SWWFCVWFQNI | 0.888 ± 0.13
78 | ALQFATVDGKVLSI | inactive
79 | FLVICCCWD | 2.08 ± 0.062
80 | MQTNCFRMAVYFAQVRLS | inactive
81 | DFHSLKNDF | inactive
82 | PYLLAVNRGESSSSVWLMPM | inactive
83 | NLLWIISHNMNGVSRIISSV | inactive
84 | VYKDHAIVLCWVVK | -0.437 ± 0.56
85 | LDFANCFLVQCL | inactive
86 | SFSLYLFPSRGLAPLPTAWL | 1.86 ± 0.089
87 | SKVACTRLDCMVFKCGTS | inactive
88 | STFGVVMTSSSD | inactive
89 | TLTGVPAGSTT | inactive
90 | SAYRKTHHSCYNVLYVFMMC | 1.49 ± 0.082
91 | YILMDFSYADLSFVLEIFFA | 0.09 ± 0.64
92 | SGNWTDRTVIPYHYYIDKLN | inactive
93 | SDVYWISLFVATSICCRSGA | inactive
94 | NFFAACNMMVLPFSMDFCSR | 2.77 ± 0.071
95 | GGMGSLCSTREGMDWCPRGY | inactive
96 | PARGLDQEMSSKVFMRGYLA | inactive

Row | Substance | amyloid nucleation score
97 | SWIVNKVF | inactive
98 | GLTVVSE | inactive
99 | NWNSSHLNREYTRHFSGMMV | inactive
100 | CTVLKYFLRYRRSHDL | inactive
101 | VEKCSVCLPTFEGWPLSKRF | inactive
102 | NTSGKCVKIDVRLNTVTS | inactive
103 | HYQHVFLAFNSVLQSPILRE | inactive
104 | YLGGFLWVWKQFSSCRLVQY | -0.057 ± 0.78
105 | IVVFLDLFRDTFGLGLPTKG | inactive
106 | MFGRYSLLDILPLNMIRGNI | inactive
107 | ILTWRRFVFFLDWVDFTSQG | inactive
108 | WRQVL | inactive
109 | QYRGCG | inactive
110 | TSSLDEGTFV | 0.644 ± 0.16
111 | HRSRISTWMWG | inactive
112 | TEGRVQMWRINALRECTGSS | inactive
113 | ITSVTLITNKSKSGIGKVGS | inactive
114 | FGYNWDCCRYMHDPRGLVTT | inactive
115 | TYLIWLGHRAHPMSLLHSFA | inactive
116 | CMLSMFSCCCFDSPRRYCH | 2.36 ± 0.051
117 | AFDYLVV | inactive
118 | YVVEICAV | inactive
119 | FQNDDVTS | inactive
120 | WIGDIIILWMRHSDLCILNC | inactive
